In PMC6755732, “Structural, Biochemical, and In Vivo Characterization of MtrR-Mediated Resistance to Innate Antimicrobials by the Human Pathogen Neisseria gonorrhoeae” (Journal of Bacteriology, 2019):

Molecular target: the molecule itself
Test: crystal structure; hanging-drop vapor diffusion; 1.6 M Na+/K+ phosphate, 0.2 M LiSO4, 0.1 M CAPS pH 10.5; space group C2; two MtrR dimers in the asymmetric unit

B1: MtrR (natural protein)
chain: MRKTKTEALKTKEHLMLAALETFYRKGIARTSLNEIAQAAGVTRGALYWHFKNKEDLFDALFQRICDDIENCIAQDAADAEGGSWTVFRHTLLHFFERLQSNDIHYKFHNILFLKCEHTEQNAAVIAIARKHQAIWREKITAVLTEAVENQDLADDLDKETAVIFIKSTLDGLIWRWFSSGESFDLGKTAPRIIGIMMDNLENHPCLRRK
notes: also called native MtrR; WT MtrR
B1: binds.
